From paper PMC5512084 come the findings set out here.

Experiment [1] concerns the target mononucleosome (calf thymus histone octamer assembled on 601 nucleosome positioning sequence DNA) (bovine (calf thymus)).
For experiment [2] the target is unchanged. As to the kind of experiment: native gel or EMSA; 2 nM IRDYE-labeled mononucleosome with 50 bp of linker DNA on both ends, 2-fold dilution series of CHD enzyme; EMSA buffer (20 mM Tris HCl pH 8.0, 75 mM NaCl, 5 mM MgCl2), 30 min at 25 °C, 4% native PAGE.

For the substance “CHD7 (from UniProt Q9P2D1 1-2997) (enzyme)”, in experiment [1], the Km of nucleosome-stimulated ATP hydrolysis (nucleosome concentration at half-maximal ATPase activation; mononucleosome with 50-bp linker DNA on both sides) worked out at 6 nM. As for “CHD6 (from UniProt Q8TD26 1-2715) (enzyme)”, the Km of nucleosome-stimulated ATP hydrolysis (nucleosome concentration at half-maximal ATPase activation; mononucleosome with 50-bp linker DNA on both sides) in experiment [1] was determined as 6 nM. Take “CHD8 (from UniProt Q9HCK8 1-2581) (enzyme)”: in experiment [1], the Km of nucleosome-stimulated ATP hydrolysis (nucleosome concentration at half-maximal ATPase activation; mononucleosome with 50-bp linker DNA on both sides) came to 55 nM. In experiment [2], this substance came in with a fold affinity against the nucleosome with only one 100-bp DNA linker of 2 fold.
